Experimental data taken from publication PMC12090761.

Key:
[1] = biological target: HIV-1 Gag (Pr55), immature Gag lattice of NL4-3 VLPs (HIV-1 (NL4-3))
[2] = biological target: HIV-1 Gag (Pr55), immature Gag lattice of NL4-3 VLPs (HIV-1 (NL4-3)); experiment: co-sedimentation; immature VLPs from HEK293T stripped of membrane with 0.05% NP-40 (Env trimers) or 0.075% NP-40 (mCD4 chimeras) or PBS, 15 minutes at 25°C, sedimented through 20% sucrose at 60,000 x g, 4°C, 1 hour; pellets blotted for gp41, CD4 and Pr55
[3] = biological target: HIV-1 Gag (Pr55), immature Gag lattice of NL4-3 VLPs (HIV-1 (NL4-3)); details: scale: mol HA-Halo-gt-EnvCT/mol NL4-3
[4] = biological target: HIV-1 Gag (Pr55), immature Gag lattice of NL4-3 VLPs (HIV-1 (NL4-3)); remark: listed apart in the source

## monomeric CD4-EnvCT 712YA chimera (from UniProt P01730 26-420)
[1]
  incorporation into VLPs released from transduced A2.01 T cells (western blot), mCD4-EnvCT relative to mCD4-ΔCT: 16.7 fold

## HIV-1 WT Env (NL4-3), gp120/gp41 trimer (complex)
[2]
  percent co-sedimenting with Gag after detergent: 10%

## HA-Halo-gt-EnvCT (712YA) chimera
[3]
  restriction of the incorporation of Env-712YA trimers into VLPs (gp41/Pr55 by western blot; HEK293T co-transfected with chimera and NL4-3 pol(-) Env-712YA plasmids at 0 to 1.375 mol/mol): 0.3
[4]
  double exponential loss curve of the competitive inhibition of 712YA Env incorporation into VLPs; half-maximal inhibition: 0.6 gp41/Pr55
